Assay results reported in doi:10.1101/2024.08.06.606761 (bioRxiv, 2024).

Legend:
Experiment in all cases: fluorescence polarisation
[1] = biological target: talin-1 (TLN1) PTB domain, tag cleaved (FP) (human)
[2] = biological target: SARS-CoV-2 NSP3 ADRP domain, tag cleaved (FP) (SARS-CoV-2)
[3] = biological target: SARS-CoV-2 NSP3 UBl1 domain, tag cleaved (FP) (SARS-CoV-2)
[4] = biological target: SARS-CoV-2 NSP3 SUD-M domain, tag cleaved (FP) (SARS-CoV-2)
[5] = biological target: SARS-CoV-2 non-structural protein (NSP) 9, tag cleaved (FP) (SARS-CoV-2)
[6] = biological target: G3BP1 NTF2-like domain, tag cleaved (FP) (human, UniProt Q13283 11-133)
G3BP1 NTF2-like domain, tag cleaved (FP), sequence (Q13283 11-133): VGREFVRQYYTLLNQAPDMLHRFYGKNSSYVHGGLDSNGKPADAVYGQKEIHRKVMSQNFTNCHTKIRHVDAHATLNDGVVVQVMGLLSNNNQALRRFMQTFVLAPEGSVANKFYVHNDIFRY

talin-1 (TLN1) PTB domain, tag cleaved (FP) (human), sequence (Q9Y490 whole entry, the tested form may be a part): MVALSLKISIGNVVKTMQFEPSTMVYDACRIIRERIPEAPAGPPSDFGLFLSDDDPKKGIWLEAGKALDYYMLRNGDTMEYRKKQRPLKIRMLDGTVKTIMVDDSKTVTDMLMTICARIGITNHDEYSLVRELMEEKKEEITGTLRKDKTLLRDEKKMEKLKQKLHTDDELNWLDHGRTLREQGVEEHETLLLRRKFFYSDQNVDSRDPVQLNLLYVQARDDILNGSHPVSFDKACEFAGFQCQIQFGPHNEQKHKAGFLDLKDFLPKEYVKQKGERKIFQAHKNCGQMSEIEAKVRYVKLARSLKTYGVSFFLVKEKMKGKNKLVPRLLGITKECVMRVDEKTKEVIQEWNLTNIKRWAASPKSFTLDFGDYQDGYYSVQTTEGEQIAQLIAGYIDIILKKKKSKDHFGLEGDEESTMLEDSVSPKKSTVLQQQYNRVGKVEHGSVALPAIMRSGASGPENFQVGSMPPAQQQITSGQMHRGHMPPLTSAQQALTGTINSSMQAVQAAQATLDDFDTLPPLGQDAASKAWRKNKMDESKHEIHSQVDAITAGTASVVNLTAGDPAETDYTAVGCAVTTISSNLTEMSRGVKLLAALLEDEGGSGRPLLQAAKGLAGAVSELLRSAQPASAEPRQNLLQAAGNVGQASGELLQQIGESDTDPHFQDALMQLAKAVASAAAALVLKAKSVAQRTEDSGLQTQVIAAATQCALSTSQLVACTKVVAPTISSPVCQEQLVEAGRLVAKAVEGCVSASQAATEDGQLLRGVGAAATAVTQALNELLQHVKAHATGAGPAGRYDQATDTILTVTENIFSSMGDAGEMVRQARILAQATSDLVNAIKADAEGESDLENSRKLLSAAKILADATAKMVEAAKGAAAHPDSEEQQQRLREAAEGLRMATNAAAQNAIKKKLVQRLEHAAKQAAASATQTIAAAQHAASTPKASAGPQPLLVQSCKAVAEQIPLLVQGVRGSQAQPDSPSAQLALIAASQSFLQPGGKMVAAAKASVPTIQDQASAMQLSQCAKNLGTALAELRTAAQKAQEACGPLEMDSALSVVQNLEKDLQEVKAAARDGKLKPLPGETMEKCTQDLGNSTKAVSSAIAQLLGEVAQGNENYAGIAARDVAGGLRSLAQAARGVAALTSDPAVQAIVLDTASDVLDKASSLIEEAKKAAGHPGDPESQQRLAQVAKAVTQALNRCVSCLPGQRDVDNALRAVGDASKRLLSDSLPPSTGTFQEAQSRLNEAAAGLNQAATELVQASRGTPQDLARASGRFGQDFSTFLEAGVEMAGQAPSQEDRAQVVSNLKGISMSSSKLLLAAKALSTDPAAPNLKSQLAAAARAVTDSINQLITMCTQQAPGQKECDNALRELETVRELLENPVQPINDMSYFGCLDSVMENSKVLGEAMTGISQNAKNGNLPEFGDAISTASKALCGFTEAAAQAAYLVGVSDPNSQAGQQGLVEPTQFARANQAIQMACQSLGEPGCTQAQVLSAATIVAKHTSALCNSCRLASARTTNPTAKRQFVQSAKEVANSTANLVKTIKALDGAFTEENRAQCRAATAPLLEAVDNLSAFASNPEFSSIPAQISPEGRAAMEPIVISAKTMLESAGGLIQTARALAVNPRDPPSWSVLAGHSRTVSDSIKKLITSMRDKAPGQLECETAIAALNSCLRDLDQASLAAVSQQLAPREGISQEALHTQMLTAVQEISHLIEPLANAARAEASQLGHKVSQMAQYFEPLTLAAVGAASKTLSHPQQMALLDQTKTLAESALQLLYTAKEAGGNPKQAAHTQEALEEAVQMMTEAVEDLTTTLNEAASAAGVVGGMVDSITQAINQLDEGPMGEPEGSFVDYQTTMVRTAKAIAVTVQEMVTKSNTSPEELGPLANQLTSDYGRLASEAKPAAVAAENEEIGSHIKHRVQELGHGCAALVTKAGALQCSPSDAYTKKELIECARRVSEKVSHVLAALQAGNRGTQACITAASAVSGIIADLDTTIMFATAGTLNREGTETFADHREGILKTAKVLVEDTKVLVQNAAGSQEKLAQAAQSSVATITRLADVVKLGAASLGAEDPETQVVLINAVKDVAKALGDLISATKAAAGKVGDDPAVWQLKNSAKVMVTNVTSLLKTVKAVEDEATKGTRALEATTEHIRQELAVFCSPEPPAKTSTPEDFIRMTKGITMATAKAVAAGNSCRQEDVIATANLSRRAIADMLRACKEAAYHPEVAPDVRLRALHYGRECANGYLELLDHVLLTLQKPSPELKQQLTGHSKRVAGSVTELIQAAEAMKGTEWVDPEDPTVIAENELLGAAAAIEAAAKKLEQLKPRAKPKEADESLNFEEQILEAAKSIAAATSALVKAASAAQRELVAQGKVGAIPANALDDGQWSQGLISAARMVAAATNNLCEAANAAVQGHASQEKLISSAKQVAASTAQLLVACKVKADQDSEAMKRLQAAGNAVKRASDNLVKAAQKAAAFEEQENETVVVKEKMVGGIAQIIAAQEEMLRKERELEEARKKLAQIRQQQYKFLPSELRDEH

| Molecule | Kd [1] | further results |
| --- | --- | --- |
| TPTE2 92-107 F97W peptide (from UniProt Q6XPS3 92-107) | 0.1 µM | – |
| TPTE2 92-107 F97Y peptide (from UniProt Q6XPS3 92-107) | 150 µM | – |
| TPTE2 92-107 I104A peptide (from UniProt Q6XPS3 92-107) | 18 µM | – |
| TPTE2 92-107 S100N peptide (from UniProt Q6XPS3 92-107) | 1.7 µM | – |
| TPTE2 92-107 Y103W peptide (from UniProt Q6XPS3 92-107) | 22 µM | – |
| wild-type MBOAT1 16-31 peptide (from UniProt Q6ZNC8 16-31) | – | Kd [2]: 49 µM |
| wild-type NCOA2 1073-1088 peptide (from UniProt Q15596 1073-1088) | – | Kd [3]: 39 µM |
| wild-type TPTE2 92-107 peptide | 4.9 µM | – |
| QFTEEDLHFVLYGVTPSL (modifications not checked) [wild-type PRDM14 peptide (FP)] | – | Kd [4]: 74 µM |
| QGAWLGAPEPWEPL (modifications not checked) [wild-type NOTCH4 peptide (FP)] | – | Kd [5]: 72 µM |
| APRITFGGPSDSTGS [wildtype SARS-CoV-2 N 12-26 peptide] | – | Kd [6]: 2.3 µM |
